The nature of series [1]: folding stability dG unfold from chymotrypsin proteolysis; higher = more stable. In a few lines:
(§1)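 Digests were run with trypsin and chymotrypsin at 11 concentrations in threefold dilutions, plus a no-protease condition, on designed mini-proteins in a PA-tagged cDNA display construct. The mini-proteins were under 80 residues, had no cysteine, and were kept only when AlphaFold2 dimer inter-PAE was above 15. After sequencing, Bayesian fitting of the counts gave K50, from which unfolding free energy was derived against a sequence-predicted unfolded-state K50 and a shared folded-state K50, per protease or combined.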

Series [2] is described as follows: folding stability dG unfold from trypsin proteolysis; higher = more stable. The procedure, abridged:
as §1

Series [3] can be described thus: folding stability dG unfold (combined trypsin and chymotrypsin); higher = more stable. The procedure, abridged: as §1

± gives the half width of the 95% confidence interval.

Turning to “SAGMKTLEKTGSAAKIEEAIAAGKSLEEVFETAGKDGGTSRTLTEPNRTLTFSGETSKPGVATLTTIPESAG [r5_343_JUSTAS]”, the “folding stability dG unfold” value in series [1] is 0.279 ± 0.18 kcal/mol; in series [2], -0.662 ± 0.55 kcal/mol; in series [3], -0.0165 ± 0.15 kcal/mol.
The matching figures for “SAGMKTVTVKVKISEEEREKLKELGFEIVEEKEDYLVIKVKVPPELSEEELEEAKKEGMTLEEALAKLSAGG [r19_115_TrROS_Hall]”: 1.71 ± 0.077 kcal/mol, 2.05 ± 0.12 kcal/mol and 1.74 ± 0.27 kcal/mol.
The matching figures for “SAGMKVIEIDVPVSKIEEVKEELEAEAKEKGLNIKFEKLEKLPGNKYKMIVTVTDPTSNEKTIYNINILSAG [r5_41_JUSTAS]”: 4.08 ± 0.051 kcal/mol, 3.83 ± 0.27 kcal/mol and 4.06 ± 0.12 kcal/mol.
In the case of “SAGMKVTTKTYTLTLTLPDGTRELKVTFTTPPDGYTATITDPNSSKVITLPFSSEEEARSAIEAIAARLSAG [r5_480_JUSTAS]”, the figures for the “folding stability dG unfold” value in series [1], in series [2] and in series [3] were 2.7 ± 0.06 kcal/mol, 2.48 ± 0.036 kcal/mol and 2.62 ± 0.092 kcal/mol, respectively.
Take “SAGMLDVPDDAEITVLVSLEKVPLPGDSSERVLAGVVKLKVKTLPNGEQVIESAEIKIVSAEELKKAGLSAG [r5_340_TrMRF]”: the “folding stability dG unfold” value came out at 1.6 ± 0.099 kcal/mol in series [1], 1.34 ± 0.038 kcal/mol in series [2] and 1.43 ± 0.17 kcal/mol in series [3].
The matching figures for “SAGMLNIPVDTPEKLLEIVKKLPGPVVVRSTSGTTVTVASLEELKEIAERGVPVELLLPEELPAEERAASAG [r5_677_JUSTAS]”: 0.872 ± 0.041 kcal/mol, 0.0824 ± 0.051 kcal/mol and 0.576 ± 0.067 kcal/mol.
The matching figures for “SAGMLSVEQLLEALKEGKEILIVAESPEERERAKRLLAEELGLSEEEIDALLKKAKIKVLPADDPELKKSAG [r5_368_TrROS_Hall]”: 2.72 ± 0.16 kcal/mol, 1.35 ± 0.086 kcal/mol and 2.46 ± 0.2 kcal/mol.
The matching figures for “SAGMLTLRVVLPKEEAEARARALAEELRRRLGLPPGAKIEVKVVEYDEETGEVVVEVTIEVELPPGVEPSAG [r5_537_TrROS_Hall]”: 3.64 ± 0.051 kcal/mol, 4.27 ± 0.14 kcal/mol and 3.98 ± 0.095 kcal/mol.
For “SAGMMEIVEVKEVDGRLELKIKDKETGEEFTITVERKEDGELKVTIEMSDEAAERLRELFPEIDRLEIKSAG [r5_933_TrROS_Hall]”, the “folding stability dG unfold” value is 3.37 ± 0.19 kcal/mol in series [1], 2.19 ± 0.069 kcal/mol in series [2] and 2.93 ± 0.097 kcal/mol in series [3].
The matching figures for “SAGMMKIKITLENGEELTIEVSPEEKEKLKEGDIVEIRLEDGTVFKAEVVEVRPPGETVKIRITEAVPSAGG [r19_274_TrROS_Hall]”: 2.9 ± 0.035 kcal/mol, 1.67 ± 0.086 kcal/mol and 2.54 ± 0.16 kcal/mol.
On the same counts, the results for “SAGMMKVKIELTIVVETKEEAEKLAEELKKALEELGIKEVKVTVEYDKETKKVTVTVEIEIELEPELLSAGG [r19_92_TrROS_Hall]” are 2.17 ± 0.1 kcal/mol, 2.18 ± 0.21 kcal/mol and 2.17 ± 0.23 kcal/mol.
Consider “SAGMNLDNMKIKEIKLQVNPDGSVEVPFEFRFPNGKPMKVSMRVNNGMIEIYYPNGWPITIDIPPGAFSAGG [r19_84_TrROS]”, for which the “folding stability dG unfold” value in series [1] is 1.48 ± 0.16 kcal/mol; in series [2], 1.01 ± 0.15 kcal/mol; in series [3], 1.36 ± 0.15 kcal/mol.
On to “SAGMPDVPPVPRTFRLEIEIEVPAEDPELARELAEEIREEIRRLGAVRTEVEIDPEPGRVRVRVEFVEGSAG [r5_512_TrMRF]”, for which the results for the “folding stability dG unfold” value in series [1], in series [2] and in series [3] were 1.56 ± 0.051 kcal/mol, 1.36 ± 0.018 kcal/mol and 1.48 ± 0.043 kcal/mol, respectively.
On the same counts, the results for “SAGMPITVDSEVDPETGTTTYTITMPRGPGEPVTVTIPVTYSDDSVTIEVTASPGVDAAEIKALIEKQSSAG [r5_478_JUSTAS]” are 0.34 ± 0.22 kcal/mol, 0.645 ± 0.053 kcal/mol and 0.597 ± 0.11 kcal/mol.
On the same counts, the results for “SAGMPKPVVTPVTLPVNGALITFTVDPEVPLATFTFDEPDVNAVAEEYAKERAAELEKAGIPTKIVPSSAGG [r19_354_JUSTAS]” are 0.743 ± 0.11 kcal/mol, 0.3 ± 0.041 kcal/mol and 0.662 ± 0.16 kcal/mol.
Regarding “SAGMPLPAEELAERLAKEIEESTDYKVSIEEIKPEGEYVIIKVRVELPEKYKDKGYEEEEFVAIFPGDLSAG [r5_970_TrMRF]”, the “folding stability dG unfold” value in series [1] came out at 0.806 ± 0.16 kcal/mol; in series [2], 0.703 ± 0.073 kcal/mol; in series [3], 0.702 ± 0.25 kcal/mol.
The matching figures for “SAGMPLSVEEAIALLRKEIEAIPVPPSVTEIEFEITIPADGRPVKITVKVNEGKLEITVTVGDKPIKIGSAG [r14_199_JUSTAS]”: 2.3 ± 0.07 kcal/mol, 1.79 ± 0.14 kcal/mol and 2.17 ± 0.11 kcal/mol.
“SAGMPLYRIRVHPDIPDRIEITEVDAEDLPPGAVLKIRFRETGETVEVPLSDLDELLALPGIEEVELVSAGG [r19_302_TrROS_Hall]”: the “folding stability dG unfold” value was 1.11 ± 0.13 kcal/mol in series [1], 0.305 ± 0.077 kcal/mol in series [2] and 0.841 ± 0.12 kcal/mol in series [3].
On the same counts, the results for “SAGMPPTTVEVKVTVVKTPEGYEVVAEVVTPDRTETLTIPPHLGLEEAKARLEAVLAERGLTLVDWTLESAG [r5_305_JUSTAS]” are 2.65 ± 0.041 kcal/mol, 2.71 ± 0.047 kcal/mol and 2.65 ± 0.057 kcal/mol.
The matching figures for “SAGMPSVTVTPVTVTVEGTAPPDLTEEELRADPTYTRTVEIDATVTLYPETGTVTVTLPGGVTVTLPSPSAG [r5_701_JUSTAS]”: 0.929 ± 0.031 kcal/mol, 0.432 ± 0.075 kcal/mol and 0.79 ± 0.095 kcal/mol.
On the same counts, the results for “SAGMPVITTTEELPGGLTVTTTTYPPGDTTTTVTSPEGNVTTTTTTTTPTPTPTTTTTTTTTTTPVPPASAG [r5_944_JUSTAS]” are 1.26 ± 0.099 kcal/mol, 1.56 ± 0.14 kcal/mol and 1.44 ± 0.26 kcal/mol.
Turning to “SAGMSMSVSVTKDPNSNSITIKVTMPVEPDAVLDLPIKVEVPEKEYEMTVEVTLSPDGLASMTGTITLPSAG [r5_596_JUSTAS]”, the “folding stability dG unfold” value in series [1] came out at 2.04 ± 0.056 kcal/mol; in series [2], 2.74 ± 0.15 kcal/mol; in series [3] it was 2.41 ± 0.18 kcal/mol.
On to “SAGMTEVAKEIADTLAEQFPPGYKIDDIKVQPLPDNMFRVPITIKRRDPNGKPRGPRQIEIWIPPEQFSAGG [r19_28_TrROS]”, for which the “folding stability dG unfold” value in series [1] amounted to 0.21 ± 0.17 kcal/mol; in series [2], 0.755 ± 0.053 kcal/mol; in series [3], 0.532 ± 0.11 kcal/mol.
On the same counts, the results for “SAGMTFEVRYPLPPGQTHKEAREEVKDMVESIAREFMPEGWKIEPKDIDVDPDKGWIEYKVDIEIPPGMSAG [r5_146_TrROS]” are 1.94 ± 0.12 kcal/mol, 1.19 ± 0.12 kcal/mol and 1.72 ± 0.18 kcal/mol.
The matching figures for “SAGMTIEIEIPASTSAEEAVERVEAIVEEVRKAGKKFELTIKTSDPALAAAVRAALEAAGVPVTVEVDSAGG [r19_268_JUSTAS]”: 2.48 ± 0.033 kcal/mol, 4.07 ± 0.12 kcal/mol and 3.28 ± 0.066 kcal/mol.
On the same counts, the results for “SAGMTIIKIEFPDGSKATVDPTNPSTMTITDPNGNTTVLNLTGVEEAKKQLIETLKKETGLPVKKVEVESAG [r5_119_JUSTAS]” are 1.38 ± 0.049 kcal/mol, 0.493 ± 0.045 kcal/mol and 1.14 ± 0.088 kcal/mol.

(Values after the supplement of paper PMC12764529.)
